{"source": "patent US5726147A", "about": "“Human mutant tissue factor compositions useful as tissue factor antagonists” (priority 1995, dated 1998)", "molecules": {"B1": {"name": "R44: mhuTF in which arginine is substituted in place of D44 (protein, UniProt P13726 33-295, looked up, variant D44R)", "Tissue factor": "SGTTNTVAAYNLTWKSTNFKTILEWEPKPVNQVYTVQISTKSGRWKSKCFYTTDTECDLTDEIVKDVKQTYLARVFSYPAGNVESTGSAGEPLYENSPEFTPYLETNLGQPTIQSFEQVGTKVNVTVEDERTLVRRNNTFLSLRDVFGKDLIYTLYYWKSSSSGKKTAKTNTNEFLIDVDKGENYCFSVQAVIPSRTVNRKSTDSPVECMGQEKGEFREIFYIIGAVVFVVIILVIILAISLHKCRKAGVGQSWKENSPLNVS"}}, "tested_on": "Factor X", "assay": "Functional cleavage of Factor X by the TF-VIIa complex (reaction rate Vmax), D44 mutants", "type": "biochemical", "experimental": "The lysate was prepared by treating cell pellets with 15 mM octyl-glucopyranoside for 15 minutes at 37 C. followed by a 3-fold dilution. […] Formed TF-VIIa complexes were quantified with substrate factor X added at 100 nM for a fixed time. Samples were then removed from the reaction and quenched in 100 mM EDTA in TBS (20 mM Tris-HCl 140 mM NaCl, pH 7.4). […] The rate of Spectrozyme hydrolysis, measured as the increase in absorbance (mOD/min), was determined at ambient temperature in a kinetic plate reader (Molecular Devices, Mountain View, Calif.) followed by quenching and monitoring of product factor Xa formation using the Spectrozyme FXa.\nAdditional mhuTF mutants were prepared based on amino acid residue substitutions at amino acid residue position number D44."}
{"molecule": "B1", "values": [{"measurement": "loss of function (specific functional activity, Vmax) compared to wild-type", "setting": "calculated from Vmax rates", "result": 75, "unit": "%"}, {"measurement": "reaction rate (Vmax)", "setting": "cleavage of Factor X", "result": "~0.5", "unit": "per second"}]}
